“And” between values parts separate entries of the source, which are not always exact repeats. Equal values may be shown once.
Molecular target: actin purified from muscle (F-actin) (Bos taurus (ground beef)) (UniProt P68138)
Assay: co-sedimentation

Lfat1 ABD [change], recombinant (from UniProt Q5ZVQ3 138-355) (domain or fragment)
Kd: 19.1 µM and 16.3 µM and 63.7 µM

— publication PMC12851578
